Laboratory results reported in the supplement of paper PMC9732359.
± gives the uncertainty stated by the source.

Test: protein stability index of a GFP-peptide fusion (yeast GPS) (PSI 1-4); higher = more stable; sorted into four equal gates, so the index is relative within each strain
Conditions: san1∆
Summary of the method: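 The protein stability index of a peptide was calculated by multiplying its read frequency in each gate by that gate's number and adding the products. The peptides were tiled 17-residue stretches of yeast proteins, fused downstream of GFP on a Cherry-expressing plasmid and carried in yeast as a pooled library. Mid-log cultures in leucine-free medium were sorted into four equal gates by GFP/Cherry ratio, and each gate's plasmids were PCR-amplified and Illumina-sequenced.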

| Sequence | protein stability index |
| --- | --- |
| SVVKKEDNKYAIAGNST [RGR1] | 3.02 ± 0.054 |
| SVVSMSNDVLKPETPKG [SIR2] | 3.25 ± 0.062 |
| SYDKTVKLWEEDPDQEE [YGL100W/SEH1] | 3.3 ± 0.044 |

Same assay, conditions: ubr1∆

| Sequence | protein stability index |
| --- | --- |
| SLGIAQPKGVILYGPPG [RPT6] | 2.91 ± 0.077 |
| SLHSNSFSLTVSKEQFL [YJL039C/NUP192] | 1.43 ± 0.078 |
| SLKLENSDLEGKIRGVE [SMC2] | 3.21 ± 0.05 |
| SLLDKPDEAIEKVFNAY [FAS1] | 3.29 ± 0.078 |
| SLSDNDLAVCATIIGII [ECM29] | 2.75 ± 0.038 |
| SLSIKLATLHYQKKQYK [RPN6] | 1.34 ± 0.079 |
| SLWRRTVYSLSQQAGLD [YDL116W/NUP84] | 2.26 ± 0.08 |
| SMCGFEVRILPRQRMEE [PRP8] | 2.24 ± 0.049 |
| SMNVTLGVPRIKEIINA [RPO31] | 2.47 ± 0.046 |
| SNEDVMMTGAEQDPYSN [RPB3] | 3.12 ± 0.073 |
| SNEEQRNLDSATLKEIK [SMC3] | 3.48 ± 0.16 |
| SNGGNNMLPQRQSSVGS [SNF2] | 2.55 ± 0.045 |
| SNKKETKKKRKPTEVND [ITC1] | 3.23 ± 0.062 |
| SNLAATKSMVKIAEQYS [RPN11] | 2.98 ± 0.063 |
| SNMFDNSADVDMDAQGR [YGL100W/SEH1] | 3.29 ± 0.062 |
| SNQLISNYAASNSMDRS [SWI1] | 3.09 ± 0.12 |
| SNRLHPPDIHPNLGPQL [GRR1] | 2.98 ± 0.049 |
| SNSTPNANQQFLPFNNS [SWI1] | 2.94 ± 0.052 |
| SNSVFSPDGRNFQVEYA [PRE10] | 2.79 ± 0.054 |
| SNYDWLFQLLNALTVGD [RPN9] | 2.56 ± 0.048 |
| SPAALKQLASLKKSEEI [YMR153W/NUP53] | 3.37 ± 0.15 |
| SPELKAELRPLQFKSIR [RPS7A] | 3.07 ± 0.12 |
| SPFFVLDEVDAALDITN [SMC1] | 2.69 ± 0.057 |
| SPMLKRIKITANNNMND [GRR1] | 2.71 ± 0.048 |
| SPSYSPTSPAYSPTSPS [RPO21] | 3.08 ± 0.032 |

| Sequence | protein stability index |
| --- | --- |
| SPSYSPTSPNYSPTSPS [RPO21] | 3.024 ± 0.026 |
| SPTESYSDIGGLESQIQ [RPT2] | 3.29 ± 0.076 |
| SPYAAMLAAQDVAAKCK [RPS14A] | 1.88 ± 0.048 |
| SQASSDLGETFRGIIRS [CSL4] | 3.24 ± 0.073 |
| SQDTKVICSVTGPIEPK [RRP46] | 2.12 ± 0.076 |
| SQLQPQPQPQPQQQQQH [YDL088C/ASM4] | 2.88 ± 0.088 |
| SQPSKKSFANHTEDEQI [SIR4] | 2.83 ± 0.052 |
| SQQAGLDPYERAIYSYL [YDL116W/NUP84] | 2.83 ± 0.099 |
| SREIAQPSSSRYNGGND [SMB1] | 3.31 ± 0.055 |
| SRIYKTIKVAGTPLLEV [SNU114] | 2.23 ± 0.053 |
| SRKAHGLNAKQLYKARM [POP1] | 2.83 ± 0.034 |
| SRKGIAFGLGAIMSKSS [ECM29] | 1.74 ± 0.036 |
| SRKRAKKMTKKAKRSNL [PRP8] | 2.52 ± 0.082 |
| SRKRKPKSASNTSSKRQ [IRR1] | 3.09 ± 0.069 |
| SRRWRQRKNIQSLELMI [BRR2] | 1.29 ± 0.057 |
| SRTFDKYSKLVDNVTLE [SRP72] | 3.3 ± 0.1 |
| SRYILFEIIFPPTDTNV [POP5] | 1.77 ± 0.047 |
| SSFEENNDLESVSMLLQ [RRI2] | 3.13 ± 0.039 |
| SSFVRQELAKSIRSRRP [PRE1] | 2.12 ± 0.065 |
| SSKLYQMQQQQQAQAQA [GAL11] | 1.82 ± 0.057 |
| SSKTSQPKPLFSFGKSD [YOR098C/NUP1] | 2.16 ± 0.035 |
| SSLASQDVDFYKNLDRG [RRP6] | 1.64 ± 0.088 |
| SSLVRRNSVKLLSKLLL [YCS4] | 1.39 ± 0.027 |
| SSQLNKLTDEQSSLDVA [SIR3] | 2.97 ± 0.056 |
| SSQVREHVKELLKYSNE [RPL1A] | 2.13 ± 0.047 |

| Sequence | protein stability index |
| --- | --- |
| SSSDFRLHYYPKDPSNV [BRR2] | 3.15 ± 0.042 |
| SSTQDVILRKISMLVTQ [CSI1] | 1.77 ± 0.041 |
| SSVVSEPKKPSFTFASS [YOR098C/NUP1] | 2.92 ± 0.034 |
| SSVYRLKFAVQVDKVTK [RPL26A] | 2.78 ± 0.27 |
| SSYEEFLERFDFYTRHH [ITC1] | 3.1 ± 0.081 |
| STEEIEYIELEYRDLYT [YMR129W/POM152] | 2.72 ± 0.05 |
| STFGFNNSAPNNTNNAN [YJL041W/NSP1] | 3.19 ± 0.038 |
| STGCVVGLSQPDAKIQV [YMR129W/POM152] | 2.42 ± 0.091 |
| STGLKNASDALKGRVVE [RPS1B] | 2.67 ± 0.07 |
| STISAREIQTAVRLILP [HTB1] | 2.38 ± 0.074 |
| STKELKFSDIIQGISKM [BRN1] | 3.35 ± 0.085 |
| STKVENSAIIQNLRKEL [YIL149C/MLP2] | 3.3 ± 0.051 |
| STLLCTDLESKSRMINF [SNU114] | 2.79 ± 0.038 |
| STMGTPTVHNSTAAAPI [PGD1] | 2.93 ± 0.049 |
| STSGDPSEFHCLQDALD [SSN2] | 3.43 ± 0.11 |
| STTEHINIDDLLYELTA [YJL039C/NUP192] | 3.05 ± 0.053 |
| STTQEILEFITAAQVAN [RPC34] | 1.19 ± 0.048 |
| STVAKNVSFVLPDEKSD [YCG1] | 3.01 ± 0.038 |
| STVASALDTNGTSATTE [SIR4] | 1.88 ± 0.045 |
| STVKGSVDLEKLAFGLT [TAF14] | 3.67 ± 0.072 |
| STVSANHSNNDIPTIAD [BRN1] | 3.24 ± 0.074 |
| SVAEVFQKAQGSYAGHR [YCG1] | 1.5 ± 0.072 |
| SVDIGVETILSGKARIC [FAS2] | 2.78 ± 0.069 |
| SVDITGGPWFTDGELDI [RPC34] | 3.18 ± 0.078 |
| SVDKKVDSGEERNEQER [SWI3] | 3.54 ± 0.077 |

| Sequence | protein stability index |
| --- | --- |
| SVDMSALKDPQTDADRV [RIP1] | 3.56 ± 0.15 |
| SVEAYLVSLFEDTNLAA [HHT1] | 3.06 ± 0.14 |
| SVFDATSDPVMHKQLAY [RPN1] | 1.96 ± 0.082 |
| SVFNAELLKLLNDEYNY [YCS4] | 2.47 ± 0.04 |
| SVGTDPMPIITFLSEWG [RPB2] | 2.22 ± 0.062 |
| SVIPLKGRYAPETGDHV [RRP4] | 2.69 ± 0.041 |
| SVIVKFHSEPDRDENWI [LIN1] | 2.75 ± 0.044 |
| SVKKAGASINSMKANTS [ARP7] | 2.25 ± 0.037 |
| SVKLDLQDDEDHKFPIR [BRN1] | 2.22 ± 0.17 |
| SVKLKQKRLEAGALNLA [DIS3] | 3 ± 0.071 |
| SVLHSWVQLVQIIVTDG [YJL039C/NUP192] | 1.54 ± 0.055 |
| SVLISIPLDNYDDFIYL [PCI8] | 1.52 ± 0.042 |
| SVLQLFQSVQLNINNPN [SMC2] | 1.48 ± 0.04 |
| SVLSSKPGSKPEKTSTE [SIR3] | 3.2 ± 0.12 |
| SVLYPDELEDDTLNETN [RRP43] | 3.11 ± 0.062 |
| SVNKNKRQAYAVSEKAG [RPL4A] | 3.29 ± 0.13 |
| SVPIWVDTSTELESMLE [RRP6] | 2.96 ± 0.085 |
| SVQDLGGSATARHKKKV [YML031W/NDC1] | 2.05 ± 0.057 |
| SVSLLNSDIANLRTQVT [SMC1] | 2.56 ± 0.11 |
| SVSLVDEFPSELSDSDR [SIR4] | 2.16 ± 0.057 |
| SVVKKEDNKYAIAGNST [RGR1] | 2.92 ± 0.054 |
| SVVSMSNDVLKPETPKG [SIR2] | 2.96 ± 0.052 |
| SYDKTVKLWEEDPDQEE [YGL100W/SEH1] | 3.29 ± 0.06 |
